Laboratory results as given in PMC10912226, “Filament formation drives catalysis by glutaminase enzymes important in cancer progression” (Nature Communications, 2024).

B1: human liver-type glutaminase GLS2, wild type, without the mitochondrial localization sequence (residue 38-602) (enzyme, UniProt Q9UI32 38-602, looked up)
chain: HHLSEAAAQGRETPHSHQPQHQDHDSSESGMLSRLGDLLFYTIAEGQERIPIHKFTTALKATGLQTSDPRLRDCMSEMHRVVQESSSGGLLDRDLFRKCVSSNIVLLTQAFRKKFVIPDFEEFTGHVDRIFEDVKELTGGKVAAYIPQLAKSNPDLWGVSLCTVDGQRHSVGHTKIPFCLQSCVKPLTYAISISTLGTDYVHKFVGKEPSGLRYNKLSLNEEGIPHNPMVNAGAIVVSSLIKMDCNKAEKFDFVLQYLNKMAGNEYMGFSNATFQSEKETGDRNYAIGYYLKEKKCFPKGVDMMAALDLYFQLCSVEVTCESGSVMAATLANGGICPITGESVLSAEAVRNTLSLMHSCGMYDFSGQFAFHVGLPAKSAVSGAILLVVPNVMGMMCLSPPLDKLGNSHRGTSFCQKLVSLFNFHNYDNLRHCARKLDPRREGAEIRNKTVVNLLFAAYSGDVSALRRFALSAMDMEQKDYDSRTALHVAAAEGHIEVVKFLIEACKVNPFAKDRWGNIPLDDAVQFNHLEVVKLLQDYQDSYTLSETQAEAAAEALSKENLESMV
notes: Tetramer in the apo state (cryo-EM); tetramers stack into filaments with glutamine and Pi; also called LGA; apo-GLS2; source: E. coli BL21 (DE3), purified (Co2+ TALON resin, HiTrap Q anion exchange, Superdex 200 SEC)
B2: human GLS2 (N308A) mutant (enzyme, UniProt Q9UI32 38-602, looked up)
chain: HHLSEAAAQGRETPHSHQPQHQDHDSSESGMLSRLGDLLFYTIAEGQERIPIHKFTTALKATGLQTSDPRLRDCMSEMHRVVQESSSGGLLDRDLFRKCVSSNIVLLTQAFRKKFVIPDFEEFTGHVDRIFEDVKELTGGKVAAYIPQLAKSNPDLWGVSLCTVDGQRHSVGHTKIPFCLQSCVKPLTYAISISTLGTDYVHKFVGKEPSGLRYNKLSLNEEGIPHNPMVNAGAIVVSSLIKMDCNKAEKFDFVLQYLNKMAGNEYMGFSAATFQSEKETGDRNYAIGYYLKEKKCFPKGVDMMAALDLYFQLCSVEVTCESGSVMAATLANGGICPITGESVLSAEAVRNTLSLMHSCGMYDFSGQFAFHVGLPAKSAVSGAILLVVPNVMGMMCLSPPLDKLGNSHRGTSFCQKLVSLFNFHNYDNLRHCARKLDPRREGAEIRNKTVVNLLFAAYSGDVSALRRFALSAMDMEQKDYDSRTALHVAAAEGHIEVVKFLIEACKVNPFAKDRWGNIPLDDAVQFNHLEVVKLLQDYQDSYTLSETQAEAAAEALSKENLESMV
notes: liver-type glutaminase GLS2, human, residues 38-602, with N308A in the tetramer-tetramer (filament) interface; source: E. coli BL21 (DE3), purified (Co2+ TALON resin, HiTrap Q anion exchange, Superdex 200 SEC)

Experiments:
[1] = target: the molecule itself; assay: cryo-EM structure; apo-GLS2, 5 µM, no substrate or activator; single particle, C2 symmetry; step: subunits in the tetramer
[2] = target: the molecule itself; assay: cryo-EM structure; GLS2 5 µM with 30 µM inhibitor 968 in 2% DMSO; 2D classification, dimer classes kept, 3.65 Å map, model not built
[3] = target: the molecule itself; assay: negative stain electron microscopy; glutaminase 1 µM with glutamine 20 mM and inorganic phosphate (50-200 mM), RT, 30 s to 1 min after mixing (GAC Y466W with DMSO also 30 min); step: tetramers to filament

| Protein | stoichiometry N [1] | stoichiometry N [2] | stoichiometry N [3] |
| --- | --- | --- | --- |
| B1 | 4 | 2 |  |
| B2 |  |  | 4 |
